From article PMC11107207, “Utility of protein–protein binding surfaces composed of anti-parallel alpha-helices and beta-sheets selected by phage display” (The Journal of Biological Chemistry, 2024)

Biological target: T1, APCDD1 bait fused to the C terminus of Fc (mouse, UniProt Q3U128 27-492)
T1 construct: mouse APCDD1, entire extracellular domain, fused to the C terminus of Fc; secreted with the mouse FZD8 signal peptide; also called Fc-bait; source: HEK293T, transiently transfected, serum-free conditioned medium; captured on proteinG; not shown: Fc (human IgG1), N-terminal, kept
T1 sequence (Q3U128 27-492): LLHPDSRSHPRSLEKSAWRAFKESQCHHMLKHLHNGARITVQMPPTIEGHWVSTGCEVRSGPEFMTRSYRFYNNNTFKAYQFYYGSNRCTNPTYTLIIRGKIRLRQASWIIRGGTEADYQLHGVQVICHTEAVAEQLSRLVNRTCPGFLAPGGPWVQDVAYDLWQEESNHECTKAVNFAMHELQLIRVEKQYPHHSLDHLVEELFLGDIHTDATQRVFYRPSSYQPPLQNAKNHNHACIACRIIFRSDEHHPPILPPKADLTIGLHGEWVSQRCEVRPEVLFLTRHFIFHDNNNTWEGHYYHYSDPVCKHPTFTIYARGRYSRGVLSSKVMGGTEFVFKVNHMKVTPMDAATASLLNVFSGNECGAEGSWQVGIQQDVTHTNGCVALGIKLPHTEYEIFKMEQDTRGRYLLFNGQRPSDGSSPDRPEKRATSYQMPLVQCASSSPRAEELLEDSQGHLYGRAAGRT
Experiment: SPR; Biacore, single-cycle kinetics/affinity, five-point dose response; bait-Fc on a proteinG chip; CC4-MBP in the mobile phase; done at Cayman Chemical
Conditions: both partners purified

B1: WT CC4-MBP (domain or fragment, mouse)
chain: PMRNPTDSLYCCDRAEDHACQNACKRILMSKKTEMEIVDGLIEGCKTQPLPQDPLWQCFLESSQS
notes: mouse RECK, CC domain 4 (CC4), a 4-helix bundle of 65 amino acids; also called RECK(CC4); source: E. coli SHuffle, purified (Ni-NTA)
Kd: > 50 µM
